Data from IntAct's records for PubMed 19898420.

B1: Abscisic acid receptor PYL2 (Arabidopsis thaliana (Mouse-ear cress)), O80992 (parent)
chain: MSSSPAVKGLTDEEQKTLEPVIKTYHQFEPDPTTCTSLITQRIHAPASVVWPLIRRFDNPERYKHFVKRCRLISGDGDVGSVREVTVISGLPASTSTERLEFVDDDHRVLSFRVVGGEHRLKNYKSVTSVNEFLNQDSGKVYTVVLESYTVDIPEGNTEEDTKMFVDTVVKLNLQKLGVAATSAPMHDDE
B2: Abscisic acid receptor PYR1 (Arabidopsis thaliana (Mouse-ear cress)), O49686 (parent)
chain: MPSELTPEERSELKNSIAEFHTYQLDPGSCSSLHAQRIHAPPELVWSIVRRFDKPQTYKHFIKSCSVEQNFEMRVGCTRDVIVISGLPANTSTERLDILDDERRVTGFSIIGGEHRLTNYKSVTTVHRFEKENRIWTVVLESYVVDMPEGNSEDDTRMFADTVVKLNLQKLATVAEAMARNSGDGSGSQVT

Variants of: B1
Settings: with HAB1, Q9CAJ0
In the case of MSSSPAVKGLTDEEQKTLEPVIKTYHQFEPDPTTCTSLITQRIHAPASVVWPLIRRFDNPERYKHFVKRCRLISGDGDVGSVREVTVISGLPASTSTERLEFVDDDHRVLSFRVVGGEARLKNYKSVTSVNEFLNQDSGKVYTVVLESYTVDIPEGNTEEDTKMFVDTVVKLNLQKLGVAATSAPMHDDE, the “effect of a mutation on the interaction” value is reported as “decreasing interaction”. In the case of MSSSPAVKGLTDEEQKTLEPVIKTYHQFEPDPTTCTSLITQRIHAPASVVWPLIRRFDNPERYKHFVKRCRLISGDGDVGSVREVTVISGLPASTSTERLEFVDDDHRVLSFRVVGGEHALKNYKSVTSVNEFLNQDSGKVYTVVLESYTVDIPEGNTEEDTKMFVDTVVKLNLQKLGVAATSAPMHDDE, the “effect of a mutation on the interaction” value is reported as “decreasing interaction”.

Variants of: B2
Settings: with HAB1, Q9CAJ0
In the case of MPSELTPEERSELKNSIAEFHTYQLDPGSCSSLHAQRIHAPPELVWSIVRRFDKPQTYKHFIKSCSVEQNFEMRVGCTRDVIVISGLPANTSTERLDILDDERRVTGFSIIGGEARLTNYKSVTTVHRFEKENRIWTVVLESYVVDMPEGNSEDDTRMFADTVVKLNLQKLATVAEAMARNSGDGSGSQVT, the “effect of a mutation on the interaction” value is reported as “disrupting interaction”.
